Reference: the supplement of paper PMC9170038

Test system: K4 kissing-loop RNA reporter
Test: apparent KD of K4 kissing-loop reporter; higher = weaker reporter binding
Details: Eterna round: R107
Method: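 RNA-MaP round R107: designed RNA switches with theophylline, tryptophan, arginine or FMN aptamers are transcribed on-chip within common flanks. They are titrated with a labelled K4 kissing-loop RNA reporter in RNA-MaP buffer (100 mM Tris pH 7.5, 80 mM KCl, 4 mM MgCl2), without ligand or with the indicated ligand. Median apparent KD per design.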

[1] = input ligand: theophylline 20 uM
[2] = input ligand: tryptophan 2.4 mM
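Note: bound reporter read as fluorescence of individual clusters on recovered sequencing chips by microscopy, with normalized cluster intensities fitted with a binding model.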

Sequence: AGACUACCACACUGUCAAUAGACAGUGAGCUAGGAUAUGCUGAUAAGCAGAAGGAGUGAUGUUCCGAGGUAGUCAAUAAAAUAAU [FmnAX 13 G29+G66]
- apparent KD of K4 kissing-loop reporter (input ligand: FMN 200 uM): 395 nM
- apparent KD of K4 kissing-loop reporter (input ligand: arginine 13.2 mM): 273 nM
- apparent KD of K4 kissing-loop reporter (input ligand: none): 261 nM
- apparent KD of K4 kissing-loop reporter [1]: 357 nM
- apparent KD of K4 kissing-loop reporter [2]: 257 nM

Sequence: UCGAUAGAGAGUGAUGUUCUCGUAUCAGAUACCAGUCACGCGAGUGACCCUUGGCAGCUGAUGUACAGCUGAGAGUAGUAUUCGA [Theo A Ex t8]
- apparent KD of K4 kissing-loop reporter (input ligand: FMN 200 uM): 90.1 nM
- apparent KD of K4 kissing-loop reporter (input ligand: arginine 13.2 mM): 104 nM
- apparent KD of K4 kissing-loop reporter (input ligand: none): 90.5 nM
- apparent KD of K4 kissing-loop reporter [1]: 129 nM
- apparent KD of K4 kissing-loop reporter [2]: 89.6 nM

Sequence: GUUUGCCGGUCCCGGAGUGAUGUUCCGGAUACCAGCAACUUCCUUUGCCCUUGGCAGCCGUAGCUAUACCGGGUGGCAGCUUCAG [Anresoenus]
- apparent KD of K4 kissing-loop reporter (input ligand: FMN 200 uM): 111 nM
- apparent KD of K4 kissing-loop reporter (input ligand: arginine 13.2 mM): 89.5 nM
- apparent KD of K4 kissing-loop reporter (input ligand: none): 104 nM
- apparent KD of K4 kissing-loop reporter [1]: 110 nM
- apparent KD of K4 kissing-loop reporter [2]: 111 nM

Sequence: GAUUUAGAGGCGGCCGCCACUAGUGAUGUUAGUGAUGUUUGAUACUGAAUAUAUCUGCGUGUAGAUAGGACCGGGCCAGAUGGAG [eyerullin]
- apparent KD of K4 kissing-loop reporter (input ligand: FMN 200 uM): 210 nM
- apparent KD of K4 kissing-loop reporter (input ligand: arginine 13.2 mM): 171 nM
- apparent KD of K4 kissing-loop reporter (input ligand: none): 186 nM
- apparent KD of K4 kissing-loop reporter [1]: 184 nM
- apparent KD of K4 kissing-loop reporter [2]: 180 nM

Sequence: UGUCAUUGGUCUGAUACCAGUACCCUUGGCAGCCGAGGAGUGAUGUUCCAAGGAUACCAGUACCCUUGGCAGCAGACCGAUGACU [TheoBS 30 #DoubleAptamer #SwitchBubble]
- apparent KD of K4 kissing-loop reporter (input ligand: FMN 200 uM): 219 nM
- apparent KD of K4 kissing-loop reporter (input ligand: arginine 13.2 mM): 178 nM
- apparent KD of K4 kissing-loop reporter (input ligand: none): 186 nM
- apparent KD of K4 kissing-loop reporter [1]: 108 nM
- apparent KD of K4 kissing-loop reporter [2]: 215 nM

Sequence: AUUUAAUUAACUGAUACCAGACUUUAUGUAUUUAUUAAAACUAGUGAUGUUAGUUUAUCUGUCCCUUGGCAGCAGUUUCUACUUA [JR_Nu_ExcTheophyB_Sub021]
- apparent KD of K4 kissing-loop reporter (input ligand: FMN 200 uM): 93.5 nM
- apparent KD of K4 kissing-loop reporter (input ligand: arginine 13.2 mM): 113 nM
- apparent KD of K4 kissing-loop reporter (input ligand: none): 105 nM
- apparent KD of K4 kissing-loop reporter [1]: 105 nM
- apparent KD of K4 kissing-loop reporter [2]: 83.4 nM

Sequence: UUAUCUAUAUUCGAUACCAGUACCCUUUGUGUUAAUCCUUUUAUCAGUGAUGUUGAUGUGUACCCUUGGCAGCGGGUAUGGGUUU [KL-XTheo-B15]
- apparent KD of K4 kissing-loop reporter (input ligand: FMN 200 uM): 420 nM
- apparent KD of K4 kissing-loop reporter (input ligand: arginine 13.2 mM): 388 nM
- apparent KD of K4 kissing-loop reporter (input ligand: none): 437 nM
- apparent KD of K4 kissing-loop reporter [1]: 640 nM
- apparent KD of K4 kissing-loop reporter [2]: 349 nM

Sequence: UAACUCUUGCAGUGAUGUUGCAAGUAAGCUCAGGAUAUCAGGAAACUGAGAAGGGAGCAUCCUGAGCAACUGCAAGAGCUCAGAA [[K1]-[K2]-[F1]-[F2]-[F]'-[K]'-[F]''_Design1]
- apparent KD of K4 kissing-loop reporter (input ligand: FMN 200 uM): 224 nM
- apparent KD of K4 kissing-loop reporter (input ligand: arginine 13.2 mM): 101 nM
- apparent KD of K4 kissing-loop reporter (input ligand: none): 95.9 nM
- apparent KD of K4 kissing-loop reporter [1]: 160 nM
- apparent KD of K4 kissing-loop reporter [2]: 87.5 nM

Sequence: GUAGCACUUGAUAGUGAUGUUAUCAAGGGCAAGGAUAUCAUCUCAAUGAGAAGGUGUCCUUGAUAACUGCUACGGGAAUAUCCCA [Omei KL FMN A Exc D v6]
- apparent KD of K4 kissing-loop reporter (input ligand: FMN 200 uM): 444 nM
- apparent KD of K4 kissing-loop reporter (input ligand: arginine 13.2 mM): 89 nM
- apparent KD of K4 kissing-loop reporter (input ligand: none): 96.8 nM
- apparent KD of K4 kissing-loop reporter [1]: 86 nM
- apparent KD of K4 kissing-loop reporter [2]: 102 nM

Sequence: AUUUUUUUAUCAGGAUAUUAGUGUUGGUUUGUUUUGUUAGUGAUGUUGAUAUUUGUUUUAUGUAUUUAAGAAGGGAUUGAGAUGU [huupullin]
- apparent KD of K4 kissing-loop reporter (input ligand: FMN 200 uM): 283 nM
- apparent KD of K4 kissing-loop reporter (input ligand: arginine 13.2 mM): 254 nM
- apparent KD of K4 kissing-loop reporter (input ligand: none): 278 nM
- apparent KD of K4 kissing-loop reporter [1]: 395 nM
- apparent KD of K4 kissing-loop reporter [2]: 211 nM

Sequence: AAGCAUUCUUCGGAAUGCAGACCCGCUGAGGAGGAUAUGACGAAAGUCAGAAGGUUUCAGUGAUGUUGAGGCCUCCUCAAUGGUC [whbob_Ex_FMNA__2th182]
- apparent KD of K4 kissing-loop reporter (input ligand: FMN 200 uM): 305 nM
- apparent KD of K4 kissing-loop reporter (input ligand: arginine 13.2 mM): 256 nM
- apparent KD of K4 kissing-loop reporter (input ligand: none): 293 nM
- apparent KD of K4 kissing-loop reporter [1]: 285 nM
- apparent KD of K4 kissing-loop reporter [2]: 291 nM

Sequence: CCGGCCCAGCCGGAUACCAGUGCGCCGCAGGGAACGGCGGGCCCAGAGUGAUGUUCGGGACACCCUUGGCAGCCGCCUGGGUCCU [#2 Same State - Theophylline B Attempt #29 (HarryS)]
- apparent KD of K4 kissing-loop reporter (input ligand: FMN 200 uM): 850 nM
- apparent KD of K4 kissing-loop reporter (input ligand: arginine 13.2 mM): 662 nM
- apparent KD of K4 kissing-loop reporter (input ligand: none): 718 nM
- apparent KD of K4 kissing-loop reporter [1]: 767 nM
- apparent KD of K4 kissing-loop reporter [2]: 864 nM

Sequence: CCAAUCUUUUACGAUACCAGUCUAAUAUAUUUAAUCAAAACCCUCGCCGAGUGAUGUUCGGACCCUUGGCAGCGUUUGCGAGAGG [xssgstkmullin]
- apparent KD of K4 kissing-loop reporter (input ligand: FMN 200 uM): 656 nM
- apparent KD of K4 kissing-loop reporter (input ligand: arginine 13.2 mM): 365 nM
- apparent KD of K4 kissing-loop reporter (input ligand: none): 543 nM
- apparent KD of K4 kissing-loop reporter [1]: 452 nM
- apparent KD of K4 kissing-loop reporter [2]: 424 nM

Sequence: ACGUCCGGAUUAAUCGUGGGCAUGGUCGAUACCAGAUCUUUAAUGAUCCCUUGGCAGCGACAUGAGUGAUGUUCAUGUGCGAUGA [KL-XTheo-A8 #analogue]
- apparent KD of K4 kissing-loop reporter (input ligand: FMN 200 uM): 188 nM
- apparent KD of K4 kissing-loop reporter (input ligand: arginine 13.2 mM): 152 nM
- apparent KD of K4 kissing-loop reporter (input ligand: none): 186 nM
- apparent KD of K4 kissing-loop reporter [1]: 244 nM
- apparent KD of K4 kissing-loop reporter [2]: 179 nM

Sequence: UUGAGACGUCAAGGAUAUUCCGCGGAAGGGCGAGCGACCCAAGUGUGAGUGAUGUUCAGCAAGCCGGAAGAAGGUGAAUUUCACC [theeternabot_sameState_KL_FMN_B_26]
- apparent KD of K4 kissing-loop reporter (input ligand: FMN 200 uM): 799 nM
- apparent KD of K4 kissing-loop reporter (input ligand: arginine 13.2 mM): 628 nM
- apparent KD of K4 kissing-loop reporter (input ligand: none): 958 nM
- apparent KD of K4 kissing-loop reporter [1]: 1050 nM
- apparent KD of K4 kissing-loop reporter [2]: 937 nM

Sequence: GACUCUCUCGUCAGGAAGACGCACUCAGCCAAGGAUAUUAUGUUUUUAAGAAGGUGGACUUAUGCCAGUGAUGUUGGCAGAUACG [theeternabot_sameState_KL_FMN_A_29]
- apparent KD of K4 kissing-loop reporter (input ligand: FMN 200 uM): 50.6 nM
- apparent KD of K4 kissing-loop reporter (input ligand: arginine 13.2 mM): 86.1 nM
- apparent KD of K4 kissing-loop reporter (input ligand: none): 67.6 nM
- apparent KD of K4 kissing-loop reporter [1]: 99.9 nM
- apparent KD of K4 kissing-loop reporter [2]: 57.1 nM

Sequence: UGAUACCAGACGGCCGCCACUACACCAGUCAAAGACUGGAUGUGAAAUUCGACCAGUGAUGUUGGUAGGACCGGGUCUGGUAUCU [TrypBX 8 #SwitchBubble #StaticStem]
- apparent KD of K4 kissing-loop reporter (input ligand: FMN 200 uM): 383 nM
- apparent KD of K4 kissing-loop reporter (input ligand: arginine 13.2 mM): 313 nM
- apparent KD of K4 kissing-loop reporter (input ligand: none): 379 nM
- apparent KD of K4 kissing-loop reporter [1]: 347 nM
- apparent KD of K4 kissing-loop reporter [2]: 591 nM

Sequence: AGUUAUGUAUCAGGAUAUUAGUGAUGUUUGUUUAUGUUAGUGAUGUUGAUAUUUGUUUUAUGUAUUUAAGAAGGGAUUGAGAUGU [ccgcmullin]
- apparent KD of K4 kissing-loop reporter (input ligand: FMN 200 uM): 57.1 nM
- apparent KD of K4 kissing-loop reporter (input ligand: arginine 13.2 mM): 20.7 nM
- apparent KD of K4 kissing-loop reporter (input ligand: none): 48 nM
- apparent KD of K4 kissing-loop reporter [1]: 30.6 nM
- apparent KD of K4 kissing-loop reporter [2]: 46.6 nM

Sequence: CGUACGGUUUCUUUCUUUCCGUACGAGUGCCGAGGACCGGUACGGCCGCCACUCGCUACAGCCUAGUGAUGUUAGGCGAUUCUUU
- apparent KD of K4 kissing-loop reporter (input ligand: FMN 200 uM): 129 nM
- apparent KD of K4 kissing-loop reporter (input ligand: arginine 13.2 mM): 117 nM
- apparent KD of K4 kissing-loop reporter (input ligand: none): 125 nM
- apparent KD of K4 kissing-loop reporter [1]: 163 nM
- apparent KD of K4 kissing-loop reporter [2]: 102 nM

Sequence: GCCGUACGCAUGGAUACCAGCAAUAUGCUACGUUGUAGUAGUAUAACCAGUGAUGUUGGAUGCCCUUGGCAGCCAUGCGUACGGC
- apparent KD of K4 kissing-loop reporter (input ligand: FMN 200 uM): 736 nM
- apparent KD of K4 kissing-loop reporter (input ligand: arginine 13.2 mM): 673 nM
- apparent KD of K4 kissing-loop reporter (input ligand: none): 897 nM
- apparent KD of K4 kissing-loop reporter [1]: 349 nM
- apparent KD of K4 kissing-loop reporter [2]: 855 nM

Sequence: GAUCUGAACGAAAGUUCGGAUCAGUCCGAUACCAGUAUGGAUUCAUACCCUUGGCAGCGGUUAUCUGCUAUGGAGUGAUGUUCCA [Theophylline A K4 11]
- apparent KD of K4 kissing-loop reporter (input ligand: FMN 200 uM): 502 nM
- apparent KD of K4 kissing-loop reporter (input ligand: arginine 13.2 mM): 344 nM
- apparent KD of K4 kissing-loop reporter (input ligand: none): 483 nM
- apparent KD of K4 kissing-loop reporter [1]: 321 nM
- apparent KD of K4 kissing-loop reporter [2]: 348 nM

Sequence: ACACUUUACGUAGGAUAUGCGACGAGUGAUGUUCGUCAGGCGGCUUGAGCUUAAACAGGCCGUCUAGCAGAAGGACGGGCAGUGU [Diorsodi]
- apparent KD of K4 kissing-loop reporter (input ligand: FMN 200 uM): 147 nM
- apparent KD of K4 kissing-loop reporter (input ligand: arginine 13.2 mM): 143 nM
- apparent KD of K4 kissing-loop reporter (input ligand: none): 192 nM
- apparent KD of K4 kissing-loop reporter [1]: 194 nM
- apparent KD of K4 kissing-loop reporter [2]: 168 nM
